Measurements: PMC9069674, “Synthesis and Evaluation of Technetium-99m-Labeled pH (Low) Insertion Peptide Variant 7 for Early Diagnosis of MDA-MB-231 Triple-Negative Breast Cancer by Targeting the Tumor Microenvironment” (Frontiers in Oncology, 2022)

Legend:
[1] = system: MDA-MB-231 tumors; set-up: species or system BALB/c nude mice; details: mouse, in vivo
Protocol: (§1) Animal experiments were approved by the ethics committee of Qingdao University, and the management of animals followed ethical standards. We built an MDA-MB-231 tumor model using four- to- five-week-old female BALB/c nude mice (Shanghai SLAC Laboratory Animal Co., Ltd, China). To do so, 0.1 mL of a cell suspension (50 µL PBS + 50 µL Matrigel) containing 1 × 10^6 MDA-MB-231 cells was subcutaneously inoculated into the right axilla of each mouse.
When tumor diameters reached 0.8–1.0 cm, 24 tumor-bearing nude mice were selected for an in vivo biodistribution experiment. Each nude mouse was injected with approximately 1480 kBq/200 μL ^99mTc-pHLIP (Var7) or ^99mTc-kVar7 through the tail vein. The mice were sacrificed humanely 1 h, 2 h, 4 h, and 6 h after injection, and their tissues and organs, such as the brain, heart, lung, liver, kidney, stomach, small intestine, blood, muscle, bone, and tumor, were weighed and measured for their radioactivity count. The results are expressed as the percentage of injected dose per gram of tissue (%ID/g).

[2] = In vitro stability in PBS at room temperature (radiochemical purity by TLC); format: physicochemical; details: room temperature (25°C), 24 h after labeling, TLC on polyamide layer with acetonitrile
Protocol: (§2) The radiochemical purity of ^99mTc-pHLIP (Var7) and ^99mTc-kVar7 was determined by thin-layer chromatography (TLC). A thin polyamide layer was used as the stationary phase, and acetonitrile was used as the developing solvent. A sufficient amount of the labeled product was aspirated through a capillary pipette and spotted at the origin of the thin polyamide layer. The thin polyamide layer was air-dried and vertically placed in a test tube with developing solvent. The saturated thin polyamide layer was removed, dried, and placed on the TLC scanner for testing.
(§3) ^99mTc-pHLIP (Var7) and ^99mTc-kVar7 were placed in PBS at room temperature (25°C) and in fresh human serum at 37°C. Samples were taken to test the radiochemical purity at 1, 4, 6, and 24 h after labeling.

[3] = system: MDA-MB-231 tumors; format: in vivo, BALB/c nude mice; details: 1, 2, 4, and 6 h after tail vein injection of about 11.1 MBq/200 μL, n = 3
Protocol: as §1
When tumor diameters reached 0.8–1.0 cm, six tumor-bearing nude mice were selected for imaging. Each nude mouse was injected with approximately 11.1 MBq/200 μL ^99mTc-pHLIP (Var7) or ^99mTc-kVar7 through the tail vein. The tumor-bearing mice were anesthetized with 2% isoflurane at 1 h, 2 h, 4 h, and 6 h after injection and were fixed on the imaging bed of a small-animal SPECT/CT imaging system in the prone position. A pinhole collimator was applied. The main parameters were a matrix size of 256 × 256, magnification power of 1.45, and acquisition time at each time point of 10 min.

[4] = system: MDA-MB-231 cells; test: Binding of labeled peptides to MDA-MB-231 cells at different pH values; format: cell-based, human; details: n=3
Protocol: a. When MDA-MB-231 cells grew to more than 90% confluence, they were digested. The cell concentration was adjusted to approximately 1.0 × 10^5 cells/mL, and 1 mL of the cell solution was added to each well of a 12-well plate and cultured overnight in a 37°C cell incubator.
b. The medium was discarded, and the cells were washed with PBS twice. Then, 2 mL of fresh medium and 37 kBq ^99mTc-pHLIP (Var7) or ^99mTc-kVar7 (20-30 μL) were added to each well. We adjusted the pH values of the wells to four levels (pH 7.4, 7.0, 6.5, and 6.0).
c. After culturing for 30, 60, 90, 120, and 180 min, the supernatant was aspirated into a supernatant tube, and each well was washed two times with PBS at the corresponding pH (7.4, 7.0, 6.5, or 6.0). The cleaning solution was also added into the supernatant tube. The cells were digested fully with 0.25% trypsin, and the cell suspension was aspirated into a cell tube and washed twice with PBS. The cleaning solution was also added to the cell tube. A γ counter was applied to measure the radioactivity count of the cell tube (B) and supernatant tube (F). The cell-binding fraction of ^99mTc-pHLIP (Var7) or ^99mTc-kVar7 = B/(B+F) × 100%.

[5] = format: in vitro ADME, human
Protocol: as §2, §3

Row | Substance | blood clearance [1] | tumor/nontumor (T/NT) ratio, trend over time [1] | radiochemical purity in PBS at 24 h [2] [%] | SPECT/CT imaging of tumors [3] | binding fraction to MDA-MB-231 cells ([4]; pH 6.0, 180 min, 37 kBq per well, γ counter, B/(B+F) × 100%, mean ± SD) [%] | binding fraction to MDA-MB-231 cells ([4]; pH 6.5, 180 min, 37 kBq per well, γ counter, B/(B+F) × 100%, mean ± SD) [%] | binding fraction to MDA-MB-231 cells ([4]; pH 7.0, 180 min, 37 kBq per well, γ counter, B/(B+F) × 100%, mean ± SD) [%] | binding fraction to MDA-MB-231 cells ([4]; pH 7.4, each time point (30, 60, 90, 120, and 180 min)) | radiochemical purity in fresh human serum at 24 h [5] [%] | binding fraction to MDA-MB-231 cells ([4]; all tested pH values (6.0, 6.5, 7.0, and 7.4), each time point (30, 60, 90, 120, and 180 min))
1 | GaGG-GABA-ACEEQNPWARYLEWLFPTETLLLEL-NH2 [^99mTc-pHLIP (Var7)] | slow blood clearance | increased over time | > 99 | clearly imaged at each time point | 3.33 ± 0.12 | 3.02 ± 0.04 | 2.87 ± 0.03 | remained low | > 96 | –
2 | GaGG-GABA-ACEEQNPWARYLKWLFPTKTLLLKL-NH2 [^99mTc-kVar7, technetium-99m-labeled control peptide kVar7, pH-insensitive, with N4 chelating group and GABA spacer, reference compound] | slow blood clearance | no significant increasing trend | > 99 | not imaged | – | – | – | – | > 96 | remained low
